Data set [1] has as its target T1, E. aridi E1^BilD (1-507, C417A) (Ensifer aridi TW10, C417A).
T1 chain: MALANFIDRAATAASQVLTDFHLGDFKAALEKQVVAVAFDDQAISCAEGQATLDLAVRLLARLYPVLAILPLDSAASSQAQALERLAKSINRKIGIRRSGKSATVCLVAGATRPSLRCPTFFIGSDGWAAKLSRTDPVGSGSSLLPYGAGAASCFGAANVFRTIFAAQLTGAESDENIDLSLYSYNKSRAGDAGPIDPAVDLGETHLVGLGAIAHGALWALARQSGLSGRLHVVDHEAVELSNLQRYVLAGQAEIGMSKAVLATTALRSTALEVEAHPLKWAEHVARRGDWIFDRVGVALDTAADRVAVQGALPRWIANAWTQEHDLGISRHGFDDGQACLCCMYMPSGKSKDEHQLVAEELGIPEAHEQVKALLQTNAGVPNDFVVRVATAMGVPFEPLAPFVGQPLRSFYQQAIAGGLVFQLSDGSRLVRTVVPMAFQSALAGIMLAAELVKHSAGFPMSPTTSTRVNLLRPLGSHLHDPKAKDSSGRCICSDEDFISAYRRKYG
Kind of data set: SEC-MALS. Background: SEC sorts molecules by how far they enter the pores of the column.

The data set “SEC-MALS” concerns the molecule itself. Kind of data set: SEC-MALS.

The values that follow come from publication PMC11476048 (Nature, 2024).

B1: E. aridi E2^BilB (1-181, wild type) (enzyme, Ensifer aridi TW10)
chain: MPELQTVDPEVSRAKFDREISRFRPYADAYRMQGCFLIEESFPSAFFIFASPKVKPRVIGAAIEIDFTNYDLRPPSVVFVDPFTRQPIARKDLPLNMLRRPQLPGTPPEMISNLIQQNAVSLTDFIQANSLQDSPFLCMAGVREYHDNPAHSGDPWLLHRGSGEGCLAFILDKIIKYGTGP
For orientation: stoichiometry N means a count of units in the complex or per binding partner. Regarding B1, the binding result in data set [1] is recorded as “binds”. In addition, the “stoichiometry N” value in the data set “SEC-MALS” was 2.

B2: E. aridi E2^BilB (1-181) Mutant 1 (F36R/I48A/I59K/F83E) (enzyme, Ensifer aridi TW10)
chain: MPELQTVDPEVSRAKFDREISRFRPYADAYRMQGCRLIEESFPSAFFAFASPKVKPRVKGAAIEIDFTNYDLRPPSVVFVDPETRQPIARKDLPLNMLRRPQLPGTPPEMISNLIQQNAVSLTDFIQANSLQDSPFLCMAGVREYHDNPAHSGDPWLLHRGSGEGCLAFILDKIIKYGTGP
On to B2, for which, in data set [1], the binding result was “binds”.

B3: E. aridi E2^BilB (1-181) Mutant 2 (F36R/I38A/F46K/I48A/I59K/F83E) (enzyme, Ensifer aridi TW10)
chain: MPELQTVDPEVSRAKFDREISRFRPYADAYRMQGCRLAEESFPSAKFAFASPKVKPRVKGAAIEIDFTNYDLRPPSVVFVDPETRQPIARKDLPLNMLRRPQLPGTPPEMISNLIQQNAVSLTDFIQANSLQDSPFLCMAGVREYHDNPAHSGDPWLLHRGSGEGCLAFILDKIIKYGTGP
On to B3, for which, in data set [1], the binding result is given as “binds”.

B4: E. aridi Ubl^BilA (17-97) (domain or fragment, Ensifer aridi TW10)
chain: KIEIIVVVNGQPTQVEANPNQPLHVVRTKALENTQNVAQPPDNWEFKDEAGNLLDVDKKIGDFGFANTVTLFLSLKAGVAG
Turning to B4, the binding result in data set [1] is “binds”.
